The values that follow come from patent US20130129739A1 (Bayer, published 2013).

To fix the notation:
T1: extracellular domain of human PRLR (monomeric, soluble) (human, UniProt P16471 25-234)
T1 construct: also called ECD-PRLR; ECD of PRLR
T1 sequence: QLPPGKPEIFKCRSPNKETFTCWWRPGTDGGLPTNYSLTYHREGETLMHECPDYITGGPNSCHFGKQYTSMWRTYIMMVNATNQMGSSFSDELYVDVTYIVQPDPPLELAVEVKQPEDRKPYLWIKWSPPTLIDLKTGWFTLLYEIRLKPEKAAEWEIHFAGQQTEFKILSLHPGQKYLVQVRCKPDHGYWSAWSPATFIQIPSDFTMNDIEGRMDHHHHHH

B1: 005-C04-41-2 (Fab, V domains shown)
VH: EVQLLESGGGLVQPGGSLRLSCAASGFTFSSYWNHWVRQAPGKGLEWVSDISRASSYTNYADSVKGRFTISRDNSKNTLYLQMNSLRAEDTAVYYCARGLDARRMDYWGQGTLVTVTS
VL: QSVLTQPPSASGTPGQRVTISCTGSSSNIGYGYVVHWYQQLPGTAPKLLIYRNNQRPSGVPDRFSGSKSGTSASLAISGLRSEDEADYYCAAWDDSLNGWLFGGGTKLTVLG
notes: Maturated 005-C04 variant; Fab in E. coli supernatant, flag-detected
B2: 005-C04-9-2 (Fab, V domains shown)
VH: EVQLLESGGGLVQPGGSLRLSCAASGFTFSSYWWHWVRQAPGKGLEWVSDIARASSYTNYADSVKGRFTISRDNSKNTLYLQMNSLRAEDTAVYYCARGLDARRMDYWGQGTLVTVTS
VL: QSVLTQPPSASGTPGQRVTISCTGSSSNIGYGYVVHWYQQLPGTAPKLLIYRNNWRQSGVPDRFSGSKSGTSASLAISGLRSEDEADYYCAAWDDSLNGWLFGGGTKLTVLG
notes: as for B1
B3: 005-C04-20-2 (Fab, V domains shown)
VH: EVQLLESGGGLVQPGGSLRLSCAASGFTFSSYWNHWVRQAPGKGLEWVSDIARLSSYTNYADSVKGRFTISRDNSKNTLYLQMNSLRAEDTAVYYCARGLDARRMDYWGQGTLVTVTS
VL: QSVLTQPPSASGTPGQRVTISCTGSSSNIGYGYVVHWYQQLPGTAPKLLIYRNNQRPSGVPDRFSGSKSGTSASLAISGLRSEDEADYYCAAWDDSLNGWLFGGGTKLTVLG
notes: as for B1
B4: 005-C04-4-3-7 (Fab, V domains shown)
VH: EVQLLESGGGLVQPGGSLRLSCAASGFTFSSYWMHWVRQAPGKGLEWVSDISSASSYTNYADSVKGRFTISRDNSKNTLYLQMNSLRAEDTAVYYCARGLDARRMDYWGQGTLVTVTS
VL: QSVLTQPPSASGTPGQRVTISCTGSSSNIGYGYVVHWYQQLPGTAPKLLIYRNNQRPSGVPDRFSGSKSGTSASLAISGLRSEDEADYYCAAWDDSLNGWLFGGGTKLTVLG
notes: as for B1
B5: 005-C04-18-10-4 (Fab, V domains shown)
VH: EVQLLESGGGLVQPGGSLRLSCAASGFTFSSYWMHWVRQAPGKGLEWVSDISSASSYTNYADSVKGRFTISRDNSKNTLYLQMNSLRAEDTAVYYCARGLDARRMDYWGQGTLVTVTS
VL: QSVLTQPPSASGTPGQRVTISCTGSSSNIGAGYVVHWYQQLPGTAPKLLIYRNNWRPSGVPDRFSGSKSGTSASLAISGLRSEDEADYYCAAWDDSLNGWLFGGGTKLTVLG
notes: as for B1
B6: 005-C04-18-10-2 (Fab, V domains shown)
VH: EVQLLESGGGLVQPGGSLRLSCAASGFTFSSYWMHWVRQAPGKGLEWVSDISSASSYTNYADSVKGRFTISRDNSKNTLYLQMNSLRAEDTAVYYCARGLDARRMDYWGQGTLVTVTS
VL: QSVLTQPPSASGTPGQRVTISCTGSSSNIGAGYVVHWYQQLPGTAPKLLIYRNNVRPSGVPDRFSGSKSGTSASLAISGLRSEDEADYYCAAWDDSLNGWLFGGGTKLTVLG
notes: as for B1
B7: 005-C04-29-17-2 (Fab, V domains shown)
VH: EVQLLESGGGLVQPGGSLRLSCAASGFTFSSYWMHWVRQAPGKGLEWVSDISSASSYTNYADSVKGRFTISRDNSKNTLYLQMNSLRAEDTAVYYCARGLDARRMDYWGQGTLVTVTS
VL: QSVLTQPPSASGTPGQRVTISCTGSSSNIGAGYVVHWYQQLPGTAPKLLIYRNNQRPSGVPDRFSGSKSGTSASLAISGLRSEDEADYYCAAWDDSLGGWLFGGGTKLTVLG
notes: as for B1
B8: 005-C04-2-7 (Fab, V domains shown)
VH: EVQLLESGGGLVQPGGSLRLSCAASGFTFSSYWWHWVRQAPGKGLEWVSDISRASPYTNYADSVKGRFTISRDNSKNTLYLQMNSLRAEDTAVYYCARGLDARRMDYWGQGTLVTVTS
VL: QSVLTQPPSASGTPGQRVTISCTGVSSNIGAGYVVHWYQQLPGTAPKLLIYRNNQRPSGVPDRFSGSKSGTSASLAISGLRSEDEADYYCAAWDDSLNGWLFGGGTKLTVLG
notes: as for B1
B9: 005-C04-10-3 (Fab, V domains shown)
VH: EVQLLESGGGLVQPGGSLRLSCAASGFTFSSYWWHWVRQAPGKGLEWVSDIARLSPYTNYADSVKGRFTISRDNSKNTLYLQMNSLRAEDTAVYYCARGLDARRMDYWGQGTLVTVTS
VL: QSVLTQPPSASGTPGQRVTISCTGSSSNIGYGYVVHWYQQLPGTAPKLLIYRNNVRQSGVPDRFSGSKSGTSASLAISGLRSEDEADYYCAAWDDSLNGWLFGGGTKLTVLG
notes: as for B1
B10: 005-C04-29-17-0 (Fab, V domains shown)
VH: EVQLLESGGGLVQPGGSLRLSCAASGFTFSSYWMHWVRQAPGKGLEWVSDISSASSYTNYADSVKGRFTISRDNSKNTLYLQMNSLRAEDTAVYYCARGLDARRMDYWGQGTLVTVTS
VL: QSVLTQPPSASGTPGQRVTISCTGSSSNIGAGYVVHWYQQLPGTAPKLLIYRNNQRPSGVPDRFSGSKSGTSASLAISGLRSEDEADYYCAAWDDSLSGWLFGGGTKLTVLG
notes: as for B1
B11: 005-C04-19-2 (Fab, V domains shown)
VH: EVQLLESGGGLVQPGGSLRLSCAASGFTFSSYWNHWVRQAPGKGLEWVSDMARLSPYTNYADSVKGRFTISRDNSKNTLYLQMNSLRAEDTAVYYCARGLDARRMDYWGQGTLVTVTS
VL: QSVLTQPPSASGTPGQRVTISCTGSSSNIGYGYVVHWYQQLPGTAPKLLIYRNNQRQSGVPDRFSGSKSGTSASLAISGLRSEDEADYYCAAWDDSLNGWLFGGGTKLTVLG
notes: as for B1
B12: 005-C04-29-0 (Fab, V domains shown)
VH: EVQLLESGGGLVQPGGSLRLSCAASGFTFSSYWNHWVRQAPGKGLEWVSDMSRASSYTNYADSVKGRFTISRDNSKNTLYLQMNSLRAEDTAVYYCARGLDARRMDYWGQGTLVTVTS
VL: QSVLTQPPSASGTPGQRVTISCTGSSSNIGYGYVVHWYQQLPGTAPKLLIYRNNQRQSGVPDRFSGSKSGTSASLAISGLRSEDEADYYCAAWDDSLNGWLFGGGTKLTVLG
notes: as for B1
B13: 005-C04-20-12-7 (Fab, V domains shown)
VH: EVQLLESGGGLVQPGGSLRLSCAASGFTFSSYWMHWVRQAPGKGLEWVSDISSASSYTNYADSVKGRFTISRDNSKNTLYLQMNSLRAEDTAVYYCARGLDARRMDYWGQGTLVTVTS
VL: QSVLTQPPSASGTPGQRVTISCTGSSSNIGAGYVVHWYQQLPGTAPKLLIYRNNQRQSGVPDRFSGSKSGTSASLAISGLRSEDEADYYCAAWDDSLNGWLFGGGTKLTVLG
notes: as for B1
B14: 005-C04-11-5 (Fab, V domains shown)
VH: EVQLLESGGGLVQPGGSLRLSCAASGFTFSSYWWHWVRQAPGKGLEWVSDISRLSPYTNYADSVKGRFTISRDNSKNTLYLQMNSLRAEDTAVYYCARGLDARRMDYWGQGTLVTVTS
VL: QSVLTQPPSASGTPGQRVTISCTGSSSNIGYGYVVHWYQQLPGTAPKLLIYRNNVRPSGVPDRFSGSKSGTSASLAISGLRSEDEADYYCAAWDDSLNGWLFGGGTKLTVLG
notes: as for B1
B15: 005-C04-8-6 (Fab, V domains shown)
VH: EVQLLESGGGLVQPGGSLRLSCAASGFTFSSYWWHWVRQAPGKGLEWVSDMSRASSYTNYADSVKGRFTISRDNSKNTLYLQMNSLRAEDTAVYYCARGLDARRMDYWGQGTLVTVTS
VL: QSVLTQPPSASGTPGQRVTISCTGQSSNIGAGYVVHWYQQLPGTAPKLLIYRNNQRPSGVPDRFSGSKSGTSASLAISGLRSEDEADYYCAAWDDSLNGWLFGGGTKLTVLG
notes: as for B1
B16: 005-C04-21-1 (Fab, V domains shown)
VH: EVQLLESGGGLVQPGGSLRLSCAASGFTFSSYWNHWVRQAPGKGLEWVSDIARLSPYTNYADSVKGRFTISRDNSKNTLYLQMNSLRAEDTAVYYCARGLDARRMDYWGQGTLVTVTS
VL: QSVLTQPPSASGTPGQRVTISCTGSSSNIGYGYVVHWYQQLPGTAPKLLIYRNNVRQSGVPDRFSGSKSGTSASLAISGLRSEDEADYYCAAWDDSLNGWLFGGGTKLTVLG
notes: as for B1
B17: 005-C04-21-2 (Fab, V domains shown)
VH: EVQLLESGGGLVQPGGSLRLSCAASGFTFSSYWNHWVRQAPGKGLEWVSDMARASPYTNYADSVKGRFTISRDNSKNTLYLQMNSLRAEDTAVYYCARGLDARRMDYWGQGTLVTVTS
VL: QSVLTQPPSASGTPGQRVTISCTGSSSNIGYGYVVHWYQQLPGTAPKLLIYRNNVRPSGVPDRFSGSKSGTSASLAISGLRSEDEADYYCAAWDDSLNGWLFGGGTKLTVLG
notes: as for B1
B18: 005-C04-25-6 (Fab, V domains shown)
VH: EVQLLESGGGLVQPGGSLRLSCAASGFTFSSYWWHWVRQAPGKGLEWVSDMSRLSSYTNYADSVKGRFTISRDNSKNTLYLQMNSLRAEDTAVYYCARGLDARRMDYWGQGTLVTVTS
VL: QSVLTQPPSASGTPGQRVTISCTGSSSNIGYGYVVHWYQQLPGTAPKLLIYRNNVRQSGVPDRFSGSKSGTSASLAISGLRSEDEADYYCAAWDDSLNGWLFGGGTKLTVLG
notes: as for B1
B19: 005-C04-2-2 (Fab, V domains shown)
VH: EVQLLESGGGLVQPGGSLRLSCAASGFTFSSYWNHWVRQAPGKGLEWVSDMARLSPYTNYADSVKGRFTISRDNSKNTLYLQMNSLRAEDTAVYYCARGLDARRMDYWGQGTLVTVTS
VL: QSVLTQPPSASGTPGQRVTISCTGSSSNIGYGYVVHWYQQLPGTAPKLLIYRNNVRQSGVPDRFSGSKSGTSASLAISGLRSEDEADYYCAAWDDSLNGWLFGGGTKLTVLG
notes: as for B1

For the assay, the target named is T1, extracellular domain of human PRLR …. Put plainly: ELISA: plate coated with human PRLR extracellular domain, Fab-containing E. coli supernatant, anti-flag-HRP, Amplex Red. How it is done: 96 well microtiter plates were coated with 1 μg per milliliter of human PRLR. Plates were incubated over night at 4° C. After blocking with PBS buffer containing 3% bovine serum albumin, normalized E. coli-derived supernatants containing the Fab variants were added. Detection of formed complexes occurred via the addition of an anti-flag antibody (Sigma, A8592) labeled with horseradish peroxidase.
In general terms: In an ELISA, binding on a coated surface is turned into a signal by an enzyme label.
In the case of B1, the binding result is reported as “binds”.

Turning to B2, the binding result is given as “binds”.

With B3, the binding result is “binds”.

As for B4, the binding result is given as “binds”.

With B5, the binding result is “binds”.

As to B6, the binding result is given as “binds”.

On to B7, for which the binding result is “binds”.

B8: the binding result was “binds”.

Consider B9, for which the binding result is “binds”.

On to B10, for which the binding result is “binds”.

In the case of B11, the binding result is on record as “binds”.

In the case of B12, the binding result is “binds”.

Regarding B13, the binding result is given as “binds”.

B14: the binding result is “binds”.

B15: the binding result was “binds”.

For B16, the binding result is “binds”.

For B17, the binding result is reported as “binds”.

For the molecule B18, the binding result is recorded as “binds”.

For the molecule B19, the binding result was “binds”.
